The record followed here is the DeepSol protein solubility set.

The nature of the data set: soluble on expression in E. coli; label from the status in PepcDB or PDB records.
As for “MGSDKIHHHHHHMPLCPSCEMKFNSWEDLAKHMDLIANTNSDKSHVMWLNRNISMKRMEVNELANALERFFSTPNSLSMWIRTRFIERFYGDNPHPFIVAMQNPTKGVLLGYVIEHQHFLKNWVKVLSSIVFKTDKDDVLQYELENISVEFIGYNGRPAHYELLLRMGEALGMPREKILSTQPLPSTQSAIKTWRKIAESKTWLETMASMHSLELVADRSLVKYGAKLPYFNPEILSSDEYPQAVKDFLREGYEADVSHAGEALEMVEKYTEEMEMKEQVQITVLKSFDAFSKYLLARLERGFEIEPSLLKRVIK”, the “soluble on expression in E. coli” value is recorded as “not soluble”. As for “MNILRNIILFGWMAIACTAFAQDRNADKVERPNTKKINFGIKAGFNSSMFMVSELKIKDVTIDEVQNNYKIGYFGAIFMRFNIKKHFIQPEASYNVSKGEITFDKLGSQHPAIEPDYASVQSVLHSIDFPILYGYNVVKKGPYGMSIFAGPKLRYLWGKQNEITFTNFDQKGIHEKLYPLNVSVVIGVGVNISRIFFDFRYEQGIGNISKSIVYDNINSDGSTGVSPIIFRRRDSALSFSFGFIL”, the “soluble on expression in E. coli” value is “not soluble”.

Turning to “MTSSIPFRSFNEKYECNDDDNFTYSSTEQKRIETMLFENYNSLVLEPFKTTSDEDLAELTIFRQKHASYLLRYLKNCPSSYATLDASRSWMCYWGVNALKILDAEIPNDVIENIIVFLKSCEHPEGGYGGGPGQLAHLAPTYAAVMCLVSLQKEEALRSINRVTLFNFLKKCKHESGGFYMHEGGEIDMRSAYCALATCEIVGLPMDEISNGVAEWIISCQSFEGGFGGEPYTEAHGGYTFCAVASLVLLNRFRLADMEGLLRWATRRQMRFEGGFQGRTNKLVDGCYSFWQGAIFPLLDGEMEREGRSLEKGLFEARMLEEYILVGCQSVHGGFKDKPDKPVDLYHTCYVLSGLSVAQKYSLARDGKILGGDVNMLAEINPVFNVTIASEQFAKEFFTSH”, the “soluble on expression in E. coli” value is “not soluble”. Take “GSPHMLSGSGLCNSSSALPLYNQQVGDCCIIRVSLDVDNGNMYKSILVTSQDKAPAVIRKAMDKHNLEEEEPEDYELLQILSDDRKLKIPENANVFYAMNSTANYDFVLKKRTFT”: the “soluble on expression in E. coli” value is recorded as “soluble”. As for “MEEKKDFYDTDELRDFMALVEKTNDIKKIALFRILAFTGIRKGELLALEWKDYRKSTLDINKAISHSPVGYEILPPKANSNRLLSLDEKTCKILDELHQTYPESTRIFESENGGMLSPSKPRKWLLEITKEKEIEPIRIHAFRHTHASLLFESGMSLKQVQYRLGHADLKTTMNIYTHITKLEHHHHHH”, the “soluble on expression in E. coli” value is recorded as “soluble”. For “MAHHHHHHMRLLRLSTKVGMESNNAALRAHLLSLRGTEPVGDPKNPLHVQLQIHDGHRNTLLSHTKELYVTALQHHPETFVNVIPLLPLSDDESSPSNDGGASNDSITLFNAASMTADRGFTPLFSHVALGGTFDRLHAGHKLLLTTALFYASKSLRIGVTLESMLKKKTYGSYIEPFETRCKLVSEFLYSVRRDIDVTVVGITEPSGGTNRDAEIEALVVSPETAGVLASINDERASYGLKPLECIQIPYVSAEGDGRVSSTELRRRLHENASGAN” the value was “soluble”; for “MGSDKIHHHHHHMKKLFLVLAVLSLVLYGCLRTPPVVKDMVTTDGSLSDWGSKIKEDAADDSKWGADNELLKAGLLFDGANIYIAGEYVIGGDGNVNVFLVLIDLVGVTGAQTVSYTGLNDGNRNFTNPNGDIDLIVEVNQSNEYKVWRVSQDGSLTDITDQVTAQFGTGSTIAELKIPISEQVNQVKAVFAISGGTGGGNQWVGDFYPNQPDHDSAENGGIPQPAPVVNFVVCDKEGNVSEEINQTSEPEQPTESVIVVDGDLSDFGTPVATSTNPGGGNGANLYRLYVTYDATYLYIGFDTQNSGSWDVAYGIGIDTKPSGYTGDSDAWGRKISFGADYAVDYEIYFWWAGGSGLDSNNFCEWNGLDWNYRSIADAGGTFDYTGDTSSGLQTMEIAIPWSAIGGKQDVALIVWITGGSGSAVDSIPDDDSTIDNADEWNDSDTFTNLYLLQVN”, “not soluble”; for “SNAMKQLSGLLGELRQKLCAGFPEQAGIQQLIFPAPGLVGRQLLEWLTAQTHFPQFYWRHRDNHEEAAVCGQTRSFADMKDADDFIQQNPDANGLRIWGLNAFEPVMVFGQLTDNGLVSGKNAQASFLFLPRLEILRRGKKTSLTLNLSSETSLQKDALQAITFIDQLMAARALPVLNARIQHSSHTPGYPQWRNLIQQALNDIEQQKLDKVVLARTTTLTLNKPLSCAAFMAASRQVNHRCYHFMLRFDDRQAFLGSSPERLYLRQQLHLETEALAGTVSNLDSDPQAAVLADWLMHDEKNQRENLLVVDDICQRLQGGVTAVDVMPPEIIRLRKVQHLRRRICAQLSRASDTDCLQRLQPTAAVAGLPREAARQFIAKHELFSRGWYAGSAGYLSLKRTEFSVALRSARVDGQQIHLYAGAGIVAGSDAEQEWQEIDNKSAGLQSLLEHEAQPVKA”, “soluble”. On to “MSLSKIKSVRTRVWNWTGPTVPPTGNFCTNASDVLWDKGDAMSSFRFHQWLTCEVETDDGTIGIGNAALAPTVVKKAIDDWFAPMVIGEDPFDYAYLWEKMYRRSHAWGRKGIGMTAISAVDLAIWDLMGKLTGKPVFKLLGGRTKEKIPVYYSKLYSGPIDTMQAEAEEARKNNYPGYKMRFGWGPKDGMAGMRENLKRVEAVREVIGYDVDLMLECYQGWNLDYTKRMLPKLVKYEPRWLEEPVIADDVEGYRELNAMNIVPISGGEHEFSVIGCKDLIEKKAVSVLQYDTNRVGGITAAQKINAIAEAFQVPVIPHAGQMHNYHLTMANANCMISEYFPVFDVEVGNELFYYIFEGDPAAVDGFLDLDDNIPGLGISITDKYLKHFEIQEEGHHHHHH”, for which the “soluble on expression in E. coli” value is “soluble”. With “MSLGVTMHDVAKAAGVSAITVSRVLNQPQQVSEQLREKVMQAVDALAYVPSRSASTLASAKSRTVLVLIPSLANTVFLETLTGIETVLDAAGYQMLIGNSHYDAGQELQLLRAYLQHRPDGVLITGLSHAEPFERILSQHALPVVYMMDLADDGRCCVGFSQEDAGAAITRHLLSRGKRRIGFLGAQLDERVMKRLDGYRAALDAADCRDAGLEWLDPQPSSMQMGADMLDRALAERPDCDALFCCNDDLAIGALARSQQLGIAVPERLAIAGFNDLQPAAWCTPPLTTVATPRRDIGVHAAKALLQLIDGEEPASRRADLGFRLMLRRSSEGHHHHHH”, the “soluble on expression in E. coli” value is on record as “soluble”.

Regarding “MQKLPHSLFFGPAGCGKTTFARVVAKDFGLDFYEFDGGNFKLEDLRKIIENYKNSLYKPLIFIDEIHRLSKTQQEMLLIPMENYRCIVIGASTENPYFVLSSGIRSRSMLFEFKNLGQKDLELLLERVQQKIAFKIEDNAKEFLLKSFDARAMLNLLEFALVLNEKEITLENLKKLRNGVNSEGVSSKDTHYILASALIKSLRGSDVDAAIYYLARLIDAGESADFIARRLIIFASEDISNADPNALNLAVSTLTAVKNIGYPEARIILSQCAVYLASAPKSNSSYNAINKALDYVKNNPALEIPNYLNNNHPEKKNYLYPHNFGGWVKQNYLSANLKFYESKGIGEEARLLENLSKLKNIKS”, the “soluble on expression in E. coli” value is “soluble”. With “MGSDKIHHHHHHMDRKLLRLYQPLNAYSYNSDSLFLYDFSRPFIKNSGAILDIGSGCGILGLLCARDNPLAIVHLVEKDNKMAFCSQKNALKFPNAQVFEGDFLDFNPPILYDIIVCNPPFYALGSIKSKIKGHARHQSELDFASLVAKVKKCLKPKGYFIFCYEALSLCLVIEGLKSVKLTLETLRFVQSFKDKNAHLMLGAARNNSKSALKVLPPLITHHSKNQSDNTKEVLSIYQTCNTYSIKALLN”, the “soluble on expression in E. coli” value is listed as “not soluble”. For “KGYDSHKIALAQSETEMRNLSHSLAEHATHTFQGADVVLDDIVSFMKWRPHPSPVFNERLRALADNLPQLSDVAILDADGQLTYASVKPVPALDNSDRSYFRYHRANDDHTLLITGPIQSRTSGVWVFVVSRRLETTDGKFFGVVVATIESEYFSTFYKTFDLGPGGSISLLHSDGRLLIQWPSLQTGRDMANMVLFQKALPRSPDGYYLTVSPFDGLTKYLAYRRVSRYPLVVTVARTEDSVLSGWREAVRSD” the value was “soluble”; for “GEKGTTGTGNAALDNIFERKSVRTYLNKGVEKEKIDLMLRAGMSAPSGKDVRPWEFVVVSDRAKLDSMAAALPYAKMLTQARNAIIVCGDSARSFYWYLDCSAAAQNILLAAESMGLGAVWTAAYPYEDRMEVVRKYTHLPENILPLCVIPFGYPATKEQPKQKYDEKKIHYNQY”, “soluble”; for “MSNDIEKSIQQWLEKKLEERGHGAQIELAAYLGIHPSTISRMLNPYKNGKSRSISIGELVKIAEFFKVSPPQISSLMLIKNS”, “not soluble”. For “MSLKKVVIIGGGAAGMSAASRVKRLKPEWDVKVFEATEWVSHAPCGIPYVVEGLSTPDKLMYYPPEVFIKKRGIDLHLNAEVIEVDTGYVRVRENGGEKSYEWDYLVFANGASPQVPAIEGVNLKGVFTADLPPDALAIREYMEKYKVENVVIIGGGYIGIEMAEAFAAQGKNVTMIVRGERVLRRSFDKEVTDILEEKLKKHVNLRLQEITMKIEGEERVEKVVTDAGEYKAELVILATGIKPNIELAKQLGVRIGETGAIWTNEKMQTSVENVYAAGDVAETRHVITGRRVWVPLAPAGNKMGYVAGSNIAGKELHFPGVLGTAVTKFMDVEIGKTGLTEMEALKEGYDVRTAFIKASTRPHYYPGGREIWLKGVVDNETNRLLGVQVVGSDILPRIDTAAAMLMAGFTTKDAFFTDLAYAPPFAPVWDPLIVLARVLKEGHHHHHH” the value was “soluble”. For “MSLASTEEETQAVMKVYSKEDYSVVNRFESHGGGWGYSAHSVEAIRFSADTDILLGGLGLFGGRGEYTAKIKLFELGPDGGDHETDGDLLAETDVLAYDCAAREKYAMMFDEPVLLQAGWWYVAWARVSGPSSDCGSHGQASITTDDGVIFQFKSSKKSNNGTDVNAGQIPQLLYRLPTSDGSTSKGKQQTSEPVHILKRSFARTVSVECFESLLSILHWSWTTLVLGVEELRGLKGFQFTATLLDLERLRFVGTCCLRLLRVYTCEIYPVSATGKAVVEETSKLAECIGKTRTLLRKILSEGVDHCMVKLDNDPQGYLSQPLRLLEAVLQECHNTFTACFHSFYPTPALQWACLCDLLNCLDQEANFKTSSSRLLAAVMSALCHTSVKLTSLFPIAYDGEVLLRSIVKQVSTENDSTLVHRFPLLVGHMEKLSQSEENISGMTSFREVLEKMLVIVVLPVRNSLRRESELFSSHLVSNTCGLLASIVSELTASALGSEVDGLNSLHSVKASANRFTKTSQGRSWNTGNGSPDAICFAVDKPGIVVVGFAVYGGGGIHEYELEVLVDDSEHAGDSTHSHRWTSLELVKGTYTTDDSPSDIAEIRLDKVVPLKENVKYAVRLRNYGSRTANGDGGMTTVQCPDGVTFTFSTCSLSSNGTNQTRGQIPQILYYRSEEGHHHHHH”, the “soluble on expression in E. coli” value is recorded as “soluble”. In the case of “SENLPAVTTEEPTPMGRGPVGPSGGGSTRDQVRTVVMRPSVSWEKAGPEEAKAPVRGGATVPAESLERPGPSSCFSRDASVITKLAKNEAGAFEPPCSETVPETVRWVWPWNP”, the “soluble on expression in E. coli” value was “soluble”. For “STEESMYTRIIKELPREGSSDVLVIKNEHVKKSDIWPSGGEMVVKDLTVKYMDDGNAVLENISFSISPGQRVGLLGRTGSGKSTLLSAFLRMLNIKGDIEIDGVSWNSVTLQEWRKAFGVITQKVFIFSGTFRQNLDPNGKHKDEEINKVADEVGLKSVIEQFPGQLNFTLVDGGYVLSHGHKQLMCLARSVLSKAKIILLDEPSAHLDPITYQVIRRVLKQAFAGCTVILCEHRIEAMLDCQRFLVIEESNVWQYDSLQALLSEKSIFQQAISSSEKMRFFQGRHSSKHKPRTQITALKEETEEEVQETRL” the value was “soluble”.
